In series [1] the target is PaqCI, Type IIS restriction endonuclease of Paucibacter aquatile (Paucibacter aquatile). Briefly: SEC; DNA-free PaqCI on Superdex 200 10/300 GL; 20 mM HEPES pH 7.5, 150 mM sodium chloride, 5 mM magnesium chloride, 1 mM DTT.
Series [2] has the same target. Briefly: cryo-EM structure; PaqCI with 50 bp DNA duplex (1:1.2 molar ratio) in 10 mM calcium chloride, SEC peak in 30 mM BisTris pH 6.5, 100 mM sodium chloride; 3.15 Å map, no symmetry imposed.
For series [3] the target is unchanged. Briefly: cryo-EM structure; DNA-free PaqCI, 0.1-0.4 mg/ml; 3.0 Å global resolution map, no symmetry imposed; crystallographic model docked.
The target is the same in series [4]. Briefly: crystal structure; DNA-free apo-enzyme; 20 to 25% PEG 3350, 0.2 M magnesium chloride, 0.1 M Bis-Tris pH 5.5; 2.5 Å; two subunits in the asymmetric unit, tetramer by a crystallographic two-fold axis.
For series [5], the target named is T1, PaqCI Type IIS restriction endonuclease (Paucibacter aquatile, UniProt A0A2N8KYF9 1-510).
T1 sequence: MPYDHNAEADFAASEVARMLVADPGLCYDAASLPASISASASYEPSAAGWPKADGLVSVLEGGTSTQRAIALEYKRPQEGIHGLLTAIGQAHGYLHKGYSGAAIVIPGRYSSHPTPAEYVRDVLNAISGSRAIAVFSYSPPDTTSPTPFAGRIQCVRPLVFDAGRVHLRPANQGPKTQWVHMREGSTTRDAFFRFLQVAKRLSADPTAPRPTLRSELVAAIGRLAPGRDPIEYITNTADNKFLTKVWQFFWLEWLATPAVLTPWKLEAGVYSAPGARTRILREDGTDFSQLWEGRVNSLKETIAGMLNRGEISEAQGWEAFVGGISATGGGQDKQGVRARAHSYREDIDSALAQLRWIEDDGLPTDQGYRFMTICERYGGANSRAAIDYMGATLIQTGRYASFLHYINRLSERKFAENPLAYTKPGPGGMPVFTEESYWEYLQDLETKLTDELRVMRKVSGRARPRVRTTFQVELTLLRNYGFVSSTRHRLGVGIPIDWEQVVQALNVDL
Briefly: SEC co-elution; 10 mM Ca2+; 1:1.2 protein monomer:DNA; SEC/cryo-EM: 30 mM BisTris pH 6.5, 100 mM NaCl; complex formed with 10 mM CaCl2; temperature not stated. To be noted: protein: recombinant; tags: none (untagged); chain copies: 4; 50 complementary bp; four duplexes per tetramer.

One may read the stoichiometry N as a count of units in the complex or per binding partner. As for “PaqCI, Type IIS restriction endonuclease of Paucibacter aquatile (enzyme)”, the stoichiometry N in series [1], in series [2], in series [3] and in series [4] was 4 each time.

B1: 50 bp PaqCI target duplex (dsDNA)
DNA 1: CCAGTCGGGATCAGCTCTCTTTCTTCCCACCTGCGCCACGCGAGGTACTC
DNA 2: GAGTACCTCGCGTGGCGCAGGTGGGAAGAAAGAGAGCTGATCCCGACTGG
B1: the binding result in series [5] is “binds”.
